Experimental data as given in patent publication US20260193348A1 (ANTENGENE BIOLOGICS, published 2026).
Substitutions are numbered along the chain they refer to. Names may count otherwise.

B1: Bis-40E9-L2H3-D105R.H (bispecific antibody)
heavy 1: not shown
heavy 2: EVQLVQSGAEVKKPGASVKVSCKASGYTFTSYVIHWVRQAPGQGLEWMGYFNPYNDGTKYNEEFKGRVTLTSDKSTSTAYMELRSLRSDDTAVYYCARGGVRRYFDVWGQGTTVTVSSASTKGPSVFPLAPSSKSTSGGTAALGCLVKDYFPEPVTVSWNSGALTSGVHTFPAVLQSSGLYSLSSVVTVPSSSLGTQTYICNVNHKPSNTKVDKKVEPKSCGGGGSGGGGSEVQLVQSGAEVKKPGSSVKVSCKASGYTFSSYVIHWVRQAPGQCLEWMGYINPYNDVIKYNEKFKGRVTLTSDKSTSTAYMELSSLRSEDTAVYYCARDSYYSYRGFAYWGQGTLVTVSSGGGGSGGGGSGGGGSGGGGSEIVLTQSPDFQSVTPKEKVTITCSASSSVSYMHWYQQKPDQSPKRLIYDTSKLASGVPSRFSGSGSGTDFTLTINSLEAEDAATYYCQQWSSNPPTFGCGTKVEIKGGGGSGGGGSDKTHTCPPCPAPEAAGGPSVFLFPPKPKDTLMISRTPEVTCVVVDVSHEDPEVKFNWYVDGVEVHNAKTKPREEQYNSTYRVVSVLTVLHQDWLNGKEYKCKVSNKALPAPIEKTISKAKGQPREPQVCTLPPSREEMTKNQVSLSCAVKGFYPSDIAVEWESNGQPENNYKTTPPVLDSDGSFFLVSKLTVDKSRWQQGNVFSCSVMHEALHNHYTQKSLSLSPGK
light: DIQMTQSPSSLSASVGDRVTITCRASQDIGSNLNWLQQKPGKAIKRLIYATFGLDSGVPSRFSGSRSGTDFTLTISSLQPEDFATYYCQQYASFPYTFGGGTKVEIKRTVAAPSVFIFPPSDEQLKSGTASVVCLLNNFYPREAKVQWKVDNALQSGNSQESVTEQDSKDSTYSLSSTLTLSKADYEKHKVYACEVTHQGLSSPVTKSFNRGEC
notes: Fab-scFv-Fab (2+1), LALA
B2: Bis-40E9-L2H3-Y101F.H (bispecific antibody)
heavy 1: not shown
heavy 2: B1 heavy 2 with Y332F, R336D
light: B1 light
notes: Fab-scFv-Fab (2+1), LALA

What was measured:
[1] = biological target: T1, GPRC5D (G-protein coupled receptor family C group 5 member D), human, on multiple myeloma cell lines (human, UniProt Q9NZD1 1-345); experiment: FACS, MM.1S cells
T1 construct: whole, on cells; Target as carried by MM.1S, MOLP-8, L363 and RPMI8226 cells
T1 sequence (Q9NZD1 whole entry): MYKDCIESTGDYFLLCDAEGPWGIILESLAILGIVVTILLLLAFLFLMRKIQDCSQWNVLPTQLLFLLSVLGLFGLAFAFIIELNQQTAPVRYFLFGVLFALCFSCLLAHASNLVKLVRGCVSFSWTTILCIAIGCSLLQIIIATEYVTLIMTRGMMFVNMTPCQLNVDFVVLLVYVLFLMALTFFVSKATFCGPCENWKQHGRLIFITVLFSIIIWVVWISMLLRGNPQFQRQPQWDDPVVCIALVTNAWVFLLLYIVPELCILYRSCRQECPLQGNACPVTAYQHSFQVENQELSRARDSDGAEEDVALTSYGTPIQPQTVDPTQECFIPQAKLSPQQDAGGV
Protocol: (§1) The binding affinities of the generated humanized Fab-scFv-Fab bispecific antibodies were determined by FACS analysis. […] (a) Jurkat cells were washed by Staining Buffer (PBS+1% BSA) in round bottom 96-well plate. [0833] (b) Antibody dilutions and cells were added to each well, incubated at 4 degrees for 1 hour. [0834] (c) Cells were spined down at 300 g for 3 minutes, and the supernatants were discarded. [0835] (d) Cells were washed with Staining Buffer. […] (e) Step (d) was repeated and the cells were incubated for 0.5 hours at 4 degrees with secondary antibody in Staining Buffer. [0837] (f) After incubation, step (d)-(e) were repeated. […] (g) Staining Buffer was added and fluorescence signals were recorded by flow cytometry.
(§2) The binding affinities of the generated humanized Fab-scFv-Fab bispecific antibodies to different multiple myeloma cell lines were evaluated by FACS analysis. The protocol for FACS analysis is identical to that described in Example 3.2, except that different cells were used in this example, i.e., multiple myeloma cell lines (MM.1S, […], L363 and RPMI 8226) were used in this example.

[2] = biological target: T1, GPRC5D (G-protein coupled receptor …); experiment: cell-based or functional assay
[3] = biological target: T2, CD3 (Cluster of Differentiation 3 protein), human, on T cells / Jurkat cells (human, UniProt P07766 23-207; P04234 22-171; P09693 23-182); experiment: FACS, Jurkat cells, antibody at 50 µg/ml
T2 construct: whole, on cells; part of the TCR-CD3 complex; also called human CD3
T2 sequence (P07766 23-207, chain 1 of 3): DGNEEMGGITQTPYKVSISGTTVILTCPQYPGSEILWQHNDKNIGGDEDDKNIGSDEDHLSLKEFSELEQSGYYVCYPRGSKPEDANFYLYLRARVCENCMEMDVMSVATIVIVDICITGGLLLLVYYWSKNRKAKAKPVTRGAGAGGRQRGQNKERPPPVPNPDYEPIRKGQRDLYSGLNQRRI
T2 sequence (P04234 22-171, chain 2 of 3): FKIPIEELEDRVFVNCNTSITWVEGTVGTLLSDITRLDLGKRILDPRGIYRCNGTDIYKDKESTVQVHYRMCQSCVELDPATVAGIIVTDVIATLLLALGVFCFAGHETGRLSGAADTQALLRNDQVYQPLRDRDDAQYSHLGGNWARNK
T2 sequence (P09693 23-182, chain 3 of 3): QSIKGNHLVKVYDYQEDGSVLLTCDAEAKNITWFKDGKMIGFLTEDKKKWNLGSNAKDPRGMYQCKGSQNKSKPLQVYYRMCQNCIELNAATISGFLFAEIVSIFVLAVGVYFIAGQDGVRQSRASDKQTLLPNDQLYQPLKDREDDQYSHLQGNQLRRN
Protocol: as §1

[4] = biological target: T1, GPRC5D (G-protein coupled receptor …); experiment: cell-based or functional assay; remark: listed apart in the source
[5] = biological target: T1, GPRC5D (G-protein coupled receptor …); experiment: FACS, MOLP-8 cells
Protocol: as §1, §2

Binder | EC50 [1] | Top (MFI) [1] | EC50 (nM), luciferase assay, L363 [2] | EC50 (nM), luciferase assay, MM.1S [2] | EC50 (nM), luciferase assay, MOLP-8 [2] | Top (RLU), luciferase assay, L363 [2] | Top (RLU), luciferase assay, MM.1S [2] | Top (RLU), luciferase assay, MOLP-8 [2] | MFI (50 µg/ml) [3] | IC50 (nM), T-Cell Dependent Cytotoxicity, MM.1S [4] | IC50 (nM), T-Cell Dependent Cytotoxicity, MOLP-8 [4] | IC50 (nM), T-Cell Dependent Cytotoxicity, RPMI8226 [4] | Top (%), T-Cell Dependent Cytotoxicity, MM.1S [4] | Top (%), T-Cell Dependent Cytotoxicity, MOLP-8 [4] | Top (%), T-Cell Dependent Cytotoxicity, RPMI8226 [4] | EC50 [5] | Top (MFI) [5]
B1 | 6160 pM | 1070 MFI | 0.0397 nM | 0.423 nM | 0.0423 nM | 942 RLU | 5240 RLU | 1080 RLU | 247 MFI | 0.00579 nM | 0.00463 nM | 0.0366 nM | 75.7% | 70.1% | 12.4% | 210 pM | 1090 MFI
B2 | 10100 pM | 1150 MFI | 0.155 nM | 0.0398 nM |  | 1600 RLU | 5630 RLU | 1470 RLU | 207 MFI | 0.00723 nM | 0.00499 nM | 0.0226 nM | 62.8% | 77.1% | 12.2% | 466 pM | 876 MFI
